# Results as given in paper PMC10882061.
# Biological target: Env-K, stabilized HIV Env trimer of BG505 NFL2P gp140 with a C-terminal Peptide K (HIV-1 (BG505))
# Experiment: SEC; Sephacryl S-300 after lectin affinity; peaks of aggregates, trimers and monomers; pooled trimer fractions also run on BN-PAGE
substance,measurement,value
"Env-K, stabilized HIV Env trimer of BG505 NFL2P gp140 with a C-terminal Peptide K",stoichiometry N,3
